Patent US20170218369, “AN ANTAGONISTIC PD-1 APTAMER AND ITS APPLICATIONS IN CANCER THERAPY RELATED APPLICATIONS” (Academia Sinica, published 2017)

How the values were obtained:
[1] = biological target: PD-1 (programmed cell death protein 1) (Homo sapiens, UniProt Q15116 Q15116:25-170); test: competition; inhibition of PD-1/PD-L1 interaction; details: tags: His tag, immobilized on Ni-NTA plate
Procedure: Each of the above aptamer nucleotide sequences were tested for PD-1 antagonistic activity using an in vitro competition assay. Briefly, 200 ng of histidine-tag labeled PD-1 receptors (His tag-PD1 protein) were coated on nickel-nitrilotriacetic acid (Ni-NTA) coated plates and treated with Fc-labeled PDL-1 protein/aptamer mixture. Protein G-HRP and ECL substrate was used to determine the binding signal. The PD-1 antagonistic antibody J116 was used as a positive control and the negative control was performed in the absence of aptamer or antibody. A schematic representation of the competition assay is shown in FIG. 8, panels A and B. Each of the aptamer sequences (Cores 1-6 and Core 1(optimized)) were tested in the in vitro competition assay at a concentration of 200 nM. In the competition assay, each aptamer nucleotide sequence inhibited the interaction between PD-1 and PDL-1 as shown in FIG. 6.

[2] = biological target: PD-1 (programmed cell death protein 1) extracellular domain (UniProt Q15116 Q15116:25-170); test: filter; total binding assay
[3] = biological target: T1, PD-1 (programmed cell death protein 1) (Mus musculus, UniProt Q02242 Q02242:25-169); test: ELONA; +++ class; details: tags: His tag, immobilized on Ni-NTA plate; label: 5'-biotin
Procedure: (§1) Briefly, 200 ng of histidine-tag labeled PD-1 receptors (His tag-PD1 protein) were coated on nickel-nitrilotriacetic acid (Ni-NTA) coated plates and treated with aptamers conjugated at their 5′ end to biotin (Biotin-PD-1 aptamer). Binding of the aptamers to PD-1 was detected using streptavidin-HRP and ECL substrate. The aptamers tested were:
(§2) The above aptamers were tested for binding to human, mouse, rat, rhesus monkey and/or canine PD-1 using the in vitro PD-1 binding assay depicted in FIG. 9.

[4] = biological target: T1, PD-1 (programmed cell death protein 1); test: ELONA; ++ class; details: tags: His tag, immobilized on Ni-NTA plate; label: 5'-biotin
Procedure: as §1, §2

T1 sequence (Q02242 25-169, one chain of several): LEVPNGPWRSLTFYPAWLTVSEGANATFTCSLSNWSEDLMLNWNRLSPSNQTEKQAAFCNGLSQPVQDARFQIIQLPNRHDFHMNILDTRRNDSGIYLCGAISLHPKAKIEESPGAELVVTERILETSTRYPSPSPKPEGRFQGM
PD-1 (programmed cell death protein 1) extracellular domain, sequence (Q15116 25-170, one chain of several): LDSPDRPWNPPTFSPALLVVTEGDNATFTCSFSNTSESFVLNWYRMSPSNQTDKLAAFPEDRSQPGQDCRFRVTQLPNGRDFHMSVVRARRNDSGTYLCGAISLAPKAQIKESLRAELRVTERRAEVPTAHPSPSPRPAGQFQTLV
PD-1 (programmed cell death protein 1) (Homo sapiens, UniProt Q15116 Q15116:25-170), sequence (Q15116 25-170, one chain of several): as above

B1: Core 1 (ssDNA)
DNA: CCATCTCCC
[1]
  IC50: 31.2 nM

B2: PD7 (ssDNA)
DNA: TCCCTACGGCGCTAACCTTCCATCTCCCATGCTTAGTCAAACATACGCCACCGTGCTACAAC
[2]
  Kd: 9.7 nM

B3: PD7 (5'-biotin) (ssDNA)
DNA: TCCCTACGGCGCTAACCTTCCATCTCCCATGCTTAGTCAAACATACGCCACCGTGCTACAAC
[3]
  Kd: < 20 nM

B4: PD100 (5'-biotin) (ssDNA)
DNA: TCCCTACGGCGCTAACCCTCCCCTAGTATATATTGTCCTCGTCTATGCCACCGTGCTACAAC
[4]
  Kd: 44.7 nM

B5: PD16 (ssDNA)
DNA: TCCCTACGGCGCTAACTGATCACAAGAATAACTATCCCATCTCCCTGCCACCGTGCTACAAC
[2]
  Kd: 2.1 nM

B6: Core 2 (5'-biotin) (ssDNA)
DNA: TATATTGTCC
[3]
  Kd: < 20 nM

B7: Core 1 (5'-biotin) (ssDNA)
DNA: CCATCTCCC
[4]
  Kd: 44.7 nM
